For one protein, Km and Vmax results are on record in patent US5928915A, “CHO cell sialidase by recombinant DNA technology” (Genentech, Inc., priority 1997, dated 1999).

Common to all, as to assay: Sialidase kinetic constants with soluble sialylglycoconjugate substrates
Holding throughout (assay type): biochemical, Chinese hamster
Common to all, as to conditions: other: apparent; standard assay conditions; average of duplicates, relative error about 10%; 37.0 °C

Substrate in data set [1]: CC(=O)N[C@H]1[C@H]([C@H](O)[C@H](O)CO)O[C@@](O[C@H](CO)[C@@H](O)[C@@H]2OC(O)(C(=O)O)C[C@H](O)[C@H]2NC(C)=O)(C(=O)O)C[C@@H]1O
Substrate in data set [2]: CC(=O)N[C@H]1[C@H]([C@H](O)[C@H](O)CO)O[C@@](Oc2ccc3c(C)cc(=O)oc3c2)(C(=O)O)C[C@@H]1O
Substrate in data set [3]: CC(=O)N[C@H]1[C@H]([C@H](O)[C@H](O)CO)O[C@@](OC[C@H]2O[C@@H](O[C@H]3[C@H](O)[C@@H](O)C(O)O[C@@H]3CO)[C@H](O)[C@@H](O)[C@H]2O)(C(=O)O)C[C@@H]1O
Substrate in data set [4]: CC(=O)N[C@H]1[C@H]([C@H](O)[C@H](O)CO)O[C@@](O[C@H]2[C@@H](O)[C@@H](CO)O[C@@H](O[C@H]3[C@H](O)[C@@H](O)C(O)O[C@@H]3CO)[C@@H]2O)(C(=O)O)C[C@@H]1O

B1: CHO cell sialidase (Cricetulus griseus) (protein)
chain: MATCPVLQKETLFQTGDYAYRIPALIYLSKQKTLLAFAEKRLTKTDEHADLFVLRRGSYNADTHQVQWQAEEVVTQAYLEGHRSMSPCPLYDKQTRTLFLFFIAVRGQISEHHQLQTGVNVTRLCHITSTDHGKTWSAVQDLTDTTIGSTHQDWATFGVGPGHCLQLRNTAGSLLVPAYAYRKQPPIHAPAPSAFCFLSHDHGSTWELGHFVSQNSLECQVAEVGTGAERVVYLNARSCLGARVQAQSPNSGLDFQDNQVVSKLVEPPKGCHGSVIAFPNPTSKADALDVWLLYTHPTDSRKRTNLGVYLNQKPLDPTTWSAPTLLATGICAYSDLQNMGHGPDGSPQFGCLYESNNYEEIVFLMFTLKQAFPAVFGAQ
notes: The sialidase described was purified from the cell culture fluid of a single production cell line (CHO 14.16); endogenous in cells; host or cells: CHO 14.16 cells (purified from the cell culture fluid)
For orientation: Km means the concentration of substrate that gives half-maximal velocity. Broadly, the Vmax is the top rate of the reaction or transport when substrate is in excess. Take B1: the Michaelis-Menten constant (Km) in data set [1] was determined as 3400 µM; in data set [2] it was 400 µM; in data set [3], 1200 µM; in data set [4], 1300 µM. For the same protein, the Vmax is 11 µmol/min/mg in data set [1], 18 µmol/min/mg in data set [2], 4 µmol/min/mg in data set [3] and 16 µmol/min/mg in data set [4].
